Source: patent US20140127175A1 (ZEALAND PHARMA A S, published 2014)
Non-standard residues stand in square brackets, D forms with d.

Legend:
[1] = molecular target: human glucagon-like peptide 1 receptor (human, UniProt P43220 24-463); assay: cell-based or functional assay
human glucagon receptor = human glucagon receptor (human, UniProt P47871 26-477); assay: cell-based or functional assay

Sequence of human glucagon-like peptide 1 receptor (P43220 24-463): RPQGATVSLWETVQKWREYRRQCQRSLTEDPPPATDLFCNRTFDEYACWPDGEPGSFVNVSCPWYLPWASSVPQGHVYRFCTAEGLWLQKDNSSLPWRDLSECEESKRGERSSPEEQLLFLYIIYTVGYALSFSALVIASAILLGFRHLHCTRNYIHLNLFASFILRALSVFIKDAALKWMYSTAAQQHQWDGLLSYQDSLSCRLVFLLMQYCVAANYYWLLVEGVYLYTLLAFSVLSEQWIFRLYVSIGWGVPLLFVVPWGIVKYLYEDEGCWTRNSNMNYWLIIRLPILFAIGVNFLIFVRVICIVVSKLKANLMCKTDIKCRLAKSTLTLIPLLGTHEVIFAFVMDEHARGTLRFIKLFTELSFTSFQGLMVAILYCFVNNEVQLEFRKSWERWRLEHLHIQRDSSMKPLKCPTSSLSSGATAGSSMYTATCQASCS

Row | Binder | EC50 of cAMP formation, HEK293 cells expressing human GLP-1R [1] [nM] | EC50 of cAMP formation, HEK293 cells expressing human Glucagon-R (human glucagon receptor) [nM]
1 | H-HSQGTFTSDYSKYLDRARADDFVAWLKSA-NH2 [ZP2634] | 0.2 | 0.5
2 | H-HSQGTFTSDYSKYLDRARADDFVAWLKEA-NH2 [ZP2635] | 0.2 | 0.2
3 | H-HSQGTFTSDYSKYLDRARADDFVAWLKST-NH2 [ZP2495] | 0.23 | 0.5
4 | H-HSQGTFTSDYSKYLDRARAEDFVAWLKST-NH2 [ZP2637] | 0.1 | 0.2

Results, then the binder that gave them:

Row | EC50 of cAMP formation, HEK293 cells expressing human GLP-1R [1] [nM] | EC50 of cAMP formation, HEK293 cells expressing human Glucagon-R (human glucagon receptor) [nM] | Binder
5 | 0.1 | 0.2 | H-HSQGTFTSDYSKYLDRARAHDFVAWLKST-NH2 [ZP2648]
6 | 0.8 | 0.5 | H-H[dS]QGTFTSDYSKYLDRARADDFVAWLKST-NH2 (SMILES CC(C)C[C@H](NC(=O)[C@H](Cc1c[nH]c2ccccc12)NC(=O)[C@H](C)NC(=O)[C@@H](NC(=O)[C@H](Cc1ccccc1)NC(=O)[C@H](CC(=O)O)NC(=O)[C@H](CC(=O)O)NC(=O)[C@H](C)NC(=O)[C@H](CCCNC(=N)N)NC(=O)[C@H](C)NC(=O)[C@H](CCCNC(=N)N)NC(=O)[C@H](CC(=O)O)NC(=O)[C@H](CC(C)C)NC(=O)[C@H](Cc1ccc(O)cc1)NC(=O)[C@H](CCCCN)NC(=O)[C@H](CO)NC(=O)[C@H](Cc1ccc(O)cc1)NC(=O)[C@H](CC(=O)O)NC(=O)[C@H](CO)NC(=O)[C@@H](NC(=O)[C@H](Cc1ccccc1)NC(=O)[C@@H](NC(=O)CNC(=O)[C@H](CCC(N)=O)NC(=O)[C@@H](CO)NC(=O)[C@@H](N)Cc1c[nH]cn1)[C@@H](C)O)[C@@H](C)O)C(C)C)C(=O)N[C@@H](CCCCN)C(=O)N[C@@H](CO)C(=O)N[C@H](C(N)=O)[C@@H](C)O) [ZP2654]
7 | 0.1 | 0.3 | H-HSQGTFTSDYSKYLDRARADDFVEWLKST-NH2 [ZP2649]
8 | 0.8 | 0.07 | H-HSQGTFTSDYSKYLDRARADDFVAWLERA-NH2 [ZP2650]
